B1: Eph B1-Fc fusion protein: extracellular domain of rat EphB1 (residues 1-538) fused to Fc region of human IgG, R&D Systems (protein)
chain: MEETLMDTRTATAELGWTANPASGWEEVSGYDENLNTIRTYQVCNVFEPNQNNWLLTTFINRRGAHRIYTEMRFTVRDCSSLPNVPGSCKETFNLYYYETDSVIATKKSAFWSEAPYLKVDTIAADESFSQVDFGGRLMKVNTEVRSFGPLTRNGFYLAFQDYGACMSLLSVRVFFKKCPSIVQNFAVFPETMTGAESTSLVIARGTCIPNAEEVDVPIKLYCNGDGEWMVPIGRCTCKAGYEPENSVACKACPAGTFKASQEAEGCSHCPSNSRSPSEASPICTCRTGYYRADFDPPEVACTSVPSGPRNVISIVNETSIILEWHPPRETGGRDDVTYNIICKKCRADRRSCSRCDDNVEFVPRQLGLTECRVSISSLWAHTPYTFDIQAINGVSSKSPFPPQHVSVNITTNQAAPSTVPIMHQVSATMRSITLSWPQPEQPNGIILDYEIRYYEKEHNEFNSSMARSQTNTARIDGLRPGMVYVVQVRARTVAGYGKFSGKMCFQTLTDDDYKSELREQ
modifications: left off: small tags and cut ends; a dimerising Fc or GST
notes: extracellular domain of rat EphB1 (residues 1-538) fused to Fc region of human IgG, R&D Systems

Legend:
Type in all cases: biochemical
MMP-9 [1] = target: T1, MMP-9 (Homo sapiens, UniProt P14780); assay: Peptide substrate hydrolysis kinetics, fluorescamine incorporation assay (kcat, Km, kcat/Km, selectivity ratio); settings: for selectivity ratio: kcat/Km for MMP-9 divided by kcat/Km for MMP-1 / selectivity ratio: kcat/Km for MMP-9 divided by kcat/Km for MMP-7: MMP-9 substrates
T1 construct: a recombinant form of the catalytic domain of MMP-9 expressed in HEK 293 cells; made in house; host or cells: HEK 293 cells
T1 sequence (P14780 94-444 limits assumed): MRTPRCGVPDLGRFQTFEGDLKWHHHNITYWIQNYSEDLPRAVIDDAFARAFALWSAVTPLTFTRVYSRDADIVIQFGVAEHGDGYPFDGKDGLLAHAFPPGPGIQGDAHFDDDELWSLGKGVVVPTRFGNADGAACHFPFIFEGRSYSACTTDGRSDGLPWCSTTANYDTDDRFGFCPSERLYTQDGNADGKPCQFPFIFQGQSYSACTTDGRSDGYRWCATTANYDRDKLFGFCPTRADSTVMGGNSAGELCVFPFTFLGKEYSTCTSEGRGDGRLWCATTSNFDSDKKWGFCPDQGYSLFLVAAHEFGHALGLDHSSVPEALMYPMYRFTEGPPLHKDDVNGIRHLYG
Protocol: (§1) In order to measure the selectivity of individual substrates for one metalloproteinase over another, representative polypeptides from the selected phage were synthesized and their rate of hydrolysis by several matrix metalloproteinases was determined. In some cases these representative polypeptide sequences contained an amino-terminal serine (S) and glycine (G) and/or a carboxyl-terminal threonine (T) and alanine (A) since these residues were used in the construction of the phage substrate library, although one skilled in the art will understand that other amino acid residues could be substituted at these positions. The kinetic parameters of substrate hydrolysis were measured using a fluorescamine incorporation assay that has been described previously (Ding et al., PNAS, 92:7627-7631 (1995); Coombs et al., Chem. and Biol. 5:475-488 (1998); Fields et al., J. Biol. Chem., 262:6221-6226 (1987); Netzel-Arnett., et al. J. Biol. Chem., 266:6747-6755 (1991)).
(§2) Briefly, individual metalloproteinases were incubated with the individual polypeptide substrates at concentrations ranging from 100-800 µM. At selected time points the reactions were stopped by the addition of 1,10 phenanthroline. Polypeptide hydrolysis was determined by the addition of fluorescamine followed by detection at an excitation wavelength of 355 nm and an emission wavelength of 460 nm. The data were transformed to double reciprocal plots (1/[S] vs 1/vi) to determine Km and kcat. In some cases Km and kcat could not be determined individually, but the specificity constant, kcat/Km, was derived by the equation: […] (Netzel-Arnett, supra, and Zumla et al., J. Immunol. Methods 149:69-76 (1992)).
(§3) The selectivity ratio of each polypeptide substrate was calculated by dividing the kcat/Km value for one matrix metalloproteinase by the kcat/Km value for the other matrix metalloproteinases that were tested. […] In many cases the polypeptide substrates are selective for one matrix metalloproteinase compared to several other matrix metalloproteinases.
(§4) The kinetic parameters of substrate hydrolysis were measured using a fluorescamine incorporation assay that has been previously described (Ding et al., PNAS, 92:7627-7631 (1995); Coombs et al., Chem. and Biol. 5:475-488 (1998); Fields et al., J. Biol. Chem., 262:6221-6226 (1987); Netzel-Arnett., et al. J. Biol. Chem., 266:6747-6755 (1991)). Briefly, MMP-2, MMP-9, MMP-7, or MMP-13 were incubated with individual peptide substrates at concentrations ranging from 100-800 μM in 50 mM Tris, pH 7.5, 100 mM NaCl, 10 mM CaCl2, 50 μM ZnCl2. At selected time points the reactions were stopped by the addition of 1,10-phenanthroline. Peptide hydrolysis was determined by the addition of fluorescamine followed by detection at λex 355 nm and λem 460 nm. The data were transformed to double reciprocal plots (1/[S] vs 1/vj) to determine Km and kcat. […] A double recipricol plot of the hydrolysis of peptide B 74 is shown as a representative plot (FIG. 4).
The Michaelis constant (Km) and first-order rate constant of substrate peptide turnover (kcat) were measured by incubating a range of each peptide with MMP-9. Peptide hydrolysis was measured by incorporation of fluorescamine onto newly formed amino-termini as previously described. From these measurements, kcat and Km were derived for each peptide using double-reciprocal plots of 1/[S] vs 1/vj. Among the peptides, the kcat values ranged from 9 s^−1 to 703 and Km values were generally in the high micromolar to low millimolar range.

MMP-2 [2] = target: T2, MMP-2 (Homo sapiens, UniProt P08253); assay: Peptide substrate hydrolysis kinetics, fluorescamine incorporation assay (kcat/Km, selectivity ratio); settings: MMP-2 substrates
T2 construct: the cDNA encoding the catalytic domain of MMP-2 was generated by PCR; made in house; host or cells: HEK 293 cells
T2 sequence (P08253 110-465 limits assumed): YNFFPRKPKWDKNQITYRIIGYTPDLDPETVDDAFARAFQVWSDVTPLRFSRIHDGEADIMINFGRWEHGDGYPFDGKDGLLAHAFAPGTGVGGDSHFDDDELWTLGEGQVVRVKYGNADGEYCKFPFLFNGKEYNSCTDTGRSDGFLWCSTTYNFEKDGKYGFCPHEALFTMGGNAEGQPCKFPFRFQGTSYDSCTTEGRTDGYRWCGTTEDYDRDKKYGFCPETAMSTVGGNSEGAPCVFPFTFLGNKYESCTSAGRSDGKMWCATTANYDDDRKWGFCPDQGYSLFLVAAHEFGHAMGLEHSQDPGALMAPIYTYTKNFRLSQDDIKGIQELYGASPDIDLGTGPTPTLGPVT
Protocol: as §1, §2, §3, §4

MT1-MMP = MT1-MMP (Homo sapiens, UniProt P50281); assay: Peptide substrate hydrolysis kinetics, selectivity between MT1-MMP and MMP-9; settings: MT1-MMP substrates
Protocol: as §1, §2, §3
Polypeptide substrates for Membrane type-Matrix Metalloproteinase 1 (MT1-MMP) were identified using substrate phage display as described for MMP-2 and MMP-9. Synthetic peptides that are analogous to the phage sequences were used to quantitate the level of selectivity between MT1-MMP and MMP-9 (see Table II).

MMP-2 [3] = target: T2, MMP-2; assay: Cleavage of recombinant Eph receptor-Fc fusion proteins, SDS-PAGE; settings: 1.8 μM fusion protein, 280 nM MMP-2, 4 hours, 37° C.
Protocol: (§5) Recombinant fusion proteins between EphB1, EphB2 and the Fc domain of IgG were purchased from R&D Systems Inc. In these constructs, the extracellular domain of rat EphB1 (amino acid residues 1-538) and mouse EphB2 (amino acid residues 1-548) are fused to the Fc region of human IgG via a short polypeptide linker. The fusion proteins (1.8 μM) were incubated for 4 hours at 37° C. with 280 nM of either MMP-2 or MMP-9. Following incubation, samples were resolved by 10% SDS-PAGE, and samples were visualized by Coomassie staining. The N-terminus of the cleaved Eph B1 was determined by automated Edman degradation of protein blotted to PVDF membranes.
(§6) The Eph B1 and Eph B2 fusion proteins were incubated with equimolar amounts (280 nM) of MMP-2 and MMP-9 for four hours. The extent of hydrolysis was gauged by SDS-PAGE (FIG. 3). […] The extent of cleavage by MMP-9 was far lower (lane 3). […] The site of hydrolysis within Eph B1 was determined by sequencing the N-terminus of one of the released fragments. […] This is one of the predicted cleavage sites in EphB1. These findings illustrate that motifs found to be selective for MMP-2 by substrate phage display, can act as selective substrates within the context of whole proteins. This experiment also illustrates that the three dimensional conformation of the putative cleavage site will also control the extent of hydrolysis.

MMP-9 [4] = target: T1, MMP-9; assay: as above; settings: 1.8 μM fusion protein, 280 nM MMP-9, 4 hours, 37° C.
Protocol: as §5, §6

[5] = hydrolysis by MMP-9, Ala instead of Leu at P1′

Molecule | selectivity ratio: kcat/Km for MMP-2 divided by kcat/Km for MMP-9 (MMP-2 [2]) | selectivity ratio: kcat/Km for MMP-2 divided by kcat/Km for MMP-1 (MMP-2 [2]) | selectivity ratio: kcat/Km for MMP-2 divided by kcat/Km for MMP-7 (MMP-2 [2]) | also measured
A11: MMP-9 selective substrate peptide from phage clone A11, sequence S-G-K-I-P-R-T-L-T-A (Table V) (KIPRTLTA) | – | – | – | selectivity ratio: kcat/Km for MMP-9 divided by kcat/Km for MMP-1 (MMP-9 [1]): 3; selectivity ratio: kcat/Km for MMP-9 divided by kcat/Km for MMP-7 (MMP-9 [1]): 10
A21: MMP-2 selective substrate peptide from phage clone A21, sequence H-M-H-K-A-L-T-A (HMHKALTA) | 8 | – | – | –
A3: MMP-2 selective substrate peptide from phage clone A3, sequence A-K-P-R-A-L-T-A (AKPRALTA) | 2 | 14 | 21 | –
C9: MMP-2 selective substrate peptide from phage clone C9, sequence R-S-L-S-R-L-T-A (RSLSRLTA) | 198 | 52 | 35 | –
A42: MT1-MMP selective substrate peptide from phage clone A42, sequence S-G-R-I-G-F-L-R-T-A (Table V) (RIGFLRT) | – | – | – | selectivity ratio: kcat/Km for MT1-MMP divided by kcat/Km for MMP-9 (MT1-MMP): 54
B37: MMP-2 selective substrate peptide from phage clone B37, sequence A-N-I-S-D-L-T-A (ANISDLTA) | 71 | 58 | 17 | –
B74: MMP-2 selective substrate peptide from phage clone B74, sequence E-S-L-A-Y-Y-T-A (ESLAYYTA) | 108 | 140 | 354 | –
C15: MMP-9 selective substrate peptide from phage clone C15, sequence S-G-K-G-P-R-Q-I-T-A (Table V) (KGPRQITA) | – | – | – | selectivity ratio: kcat/Km for MMP-9 divided by kcat/Km for MMP-1 (MMP-9 [1]): 12; selectivity ratio: kcat/Km for MMP-9 divided by kcat/Km for MMP-7 (MMP-9 [1]): 14
B149: MT1-MMP selective substrate peptide from phage clone B149, sequence S-G-A-R-Y-R-W-L-T-A (Table V) (ARYRWLTA) | – | – | – | selectivity ratio: kcat/Km for MT1-MMP divided by kcat/Km for MMP-9 (MT1-MMP): 3
AC-SGKIPRTATA-NH2 (Ac-SGKIPRTATA-NH2) [Clone A11m2] | – | – | – | kcat/Km ratio (MMP-9 [1]; hydrolysis by MMP-9): 2,000 M^−1s^−1; effect of substitution on kcat and Km (MMP-9 [1]; [5]): deleterious effects on both kcat and Km; reduction of kcat/Km ratio relative to peptide A11 (MMP-9 [1]; [5]): ~30 fold
A176: MT1-MMP selective substrate peptide from phage clone A176, sequence S-G-R-S-E-N-I-R-T-A (Table V) (RSENIRT) | – | – | – | selectivity ratio: kcat/Km for MT1-MMP divided by kcat/Km for MMP-9 (MT1-MMP): 73
B96: MT1-MMP selective substrate peptide from phage clone B96, sequence S-G-L-I-S-H-S-I-T-A (Table V) (LISHSITA) | – | – | – | selectivity ratio: kcat/Km for MT1-MMP divided by kcat/Km for MMP-9 (MT1-MMP): 5
A13: MMP-2 selective substrate peptide from phage clone A13, sequence G-A-V-S-W-L-L-T (GAVSWLLT) | 15 | 28 | 13 | –
A34: MMP-2 selective substrate peptide from phage clone A34, sequence N-R-Y-S-S-L-T-A (NRYSSLTA) | 40 | 24 | 84 | –
B49: MMP-2 selective substrate peptide from phage clone B49, sequence L-R-L-A-A-I-T-A (LRLAAITA) | 14 | 13 | 6 | –
B175: MT1-MMP selective substrate peptide from phage clone B175, sequence S-G-R-A-M-H-M-Y-T-A (Table V) (RAMHMYT) | – | – | – | selectivity ratio: kcat/Km for MT1-MMP divided by kcat/Km for MMP-9 (MT1-MMP): 19
A6: MMP-9 selective substrate peptide from phage clone A6, sequence S-G-P-R-A-V-S-T-T-A (Table V) (PRAVST) | – | – | – | selectivity ratio: kcat/Km for MMP-9 divided by kcat/Km for MMP-1 (MMP-9 [1]): 5; selectivity ratio: kcat/Km for MMP-9 divided by kcat/Km for MMP-7 (MMP-9 [1]): 47
B1 | – | – | – | extent of hydrolysis by MMP-2 (SDS-PAGE) (MMP-2 [3]): almost quantitatively cleaved; extent of hydrolysis by MMP-9 (SDS-PAGE) (MMP-9 [4]): far lower
